This test deals with recombinant LanCL1 (Lanthionine synthetase C-like protein 1) (UniProt O43813). Nature of the test: competition: displacement of photoprobe SEQ ID NO:22 from rLANCL1, in-gel fluorescence.
Sequence of recombinant LanCL1 (Lanthionine synthetase C-like protein 1) (O43813 whole entry): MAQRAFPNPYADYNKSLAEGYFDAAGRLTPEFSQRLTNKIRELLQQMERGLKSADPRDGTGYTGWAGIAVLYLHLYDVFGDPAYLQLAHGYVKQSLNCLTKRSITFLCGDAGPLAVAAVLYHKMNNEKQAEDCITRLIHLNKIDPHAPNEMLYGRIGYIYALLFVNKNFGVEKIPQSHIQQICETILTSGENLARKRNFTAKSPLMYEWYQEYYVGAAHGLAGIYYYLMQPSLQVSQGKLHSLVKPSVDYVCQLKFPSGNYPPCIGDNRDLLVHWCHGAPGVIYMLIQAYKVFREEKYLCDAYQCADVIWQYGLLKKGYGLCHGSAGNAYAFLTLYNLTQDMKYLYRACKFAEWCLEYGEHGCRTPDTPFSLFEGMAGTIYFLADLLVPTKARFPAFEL

In the case of RALNSS [peptide of SEQ ID NO:39, RALNSS], the ED50 displacement value is over 200 µM.

The values are drawn from patent publication US20250002534A1.
